These results are taken from PMC3443260.

pKd: −log10 of the molar value. Read-outs that look alike come from different tables or passages of the source.

For experiment [1], the target named is CI-MPR C-terminal DXXLL peptide (Homo sapiens) (UniProt P11717). Put plainly: ITC. The conditions noted are these: cited from earlier work.
In experiment [2] the target is Flag-tagged mouse GGA2 (mouse) (UniProt Q6P5E6). Put plainly: BLI.
For experiment [3] the target is unchanged. Put plainly: BLI. The source holds these as a separate data set.

Chain of Flag-tagged mouse GGA2 (mouse) (Q6P5E6 whole entry): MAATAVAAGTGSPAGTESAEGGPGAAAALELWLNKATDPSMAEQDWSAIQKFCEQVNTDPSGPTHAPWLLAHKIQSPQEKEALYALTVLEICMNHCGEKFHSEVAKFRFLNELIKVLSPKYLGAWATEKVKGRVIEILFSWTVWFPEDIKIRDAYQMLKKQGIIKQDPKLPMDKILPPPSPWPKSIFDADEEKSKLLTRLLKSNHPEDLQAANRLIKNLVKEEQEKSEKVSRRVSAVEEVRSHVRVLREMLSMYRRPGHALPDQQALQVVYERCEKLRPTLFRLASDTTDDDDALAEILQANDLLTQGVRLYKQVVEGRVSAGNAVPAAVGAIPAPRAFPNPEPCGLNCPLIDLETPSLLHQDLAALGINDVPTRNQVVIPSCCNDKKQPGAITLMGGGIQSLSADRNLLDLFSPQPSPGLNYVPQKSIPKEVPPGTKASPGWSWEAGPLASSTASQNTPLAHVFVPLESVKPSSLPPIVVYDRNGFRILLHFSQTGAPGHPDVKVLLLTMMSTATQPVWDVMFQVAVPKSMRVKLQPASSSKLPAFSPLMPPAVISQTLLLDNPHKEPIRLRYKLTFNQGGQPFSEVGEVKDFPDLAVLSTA
Chain of GGA2 VHS (Q9UJY4 30-166): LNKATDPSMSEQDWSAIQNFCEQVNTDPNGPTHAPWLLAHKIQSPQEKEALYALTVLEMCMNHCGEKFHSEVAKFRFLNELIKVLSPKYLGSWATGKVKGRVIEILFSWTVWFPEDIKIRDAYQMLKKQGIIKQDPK

Turning to GGA2 VHS (from UniProt Q9UJY4), the pKd in experiment [1] was 5.15.
Take “MBP-LRP9 30mer containing both DXXLL motifs (peptide)”: in experiment [2], the pKd was 6.82 and the koff was determined as 0.0052 s⁻¹.
As for “MBP-LRP9 30mer with the C-terminal DXXLL motif mutated to AXXAA (peptide)”, the pKd in experiment [2] is 6.55; in experiment [3] it was 6.42. In addition, in experiment [2], the koff stood at 0.0059 s⁻¹.
